Data reported in PMC4593227, “Biochemical effects of mutations in the gene encoding the alpha subunit of eukaryotic initiation factor (eIF) 2B associated with Vanishing White Matter disease” (BMC Medical Genetics, 2015).

T1: His6-myc-tagged Val183Phe eIF2Bα (human, UniProt Q14232 1-305, Val183Phe)
T1 construct: eIF2Bα encoded by EIF2B1 with the VWM patient mutation Val183Phe; residue numbers start with the first methionine of GenBank AAI03764; also called p.Val183Phe; source: HEK293, transfected (calcium phosphate), in lysate
T1 sequence: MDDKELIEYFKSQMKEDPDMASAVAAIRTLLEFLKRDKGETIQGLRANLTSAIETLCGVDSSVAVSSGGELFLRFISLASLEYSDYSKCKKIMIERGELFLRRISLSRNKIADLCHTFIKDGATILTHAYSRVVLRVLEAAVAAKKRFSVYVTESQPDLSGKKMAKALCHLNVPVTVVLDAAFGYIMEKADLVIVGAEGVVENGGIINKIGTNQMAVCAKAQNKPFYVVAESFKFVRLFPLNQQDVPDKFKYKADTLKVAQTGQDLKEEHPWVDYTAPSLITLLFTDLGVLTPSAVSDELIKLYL

T2: His6-myc-tagged Tyr275Cys eIF2Bα (human, UniProt Q14232 1-305, Tyr275Cys)
T2 construct: eIF2Bα encoded by EIF2B1 with the VWM patient mutation Tyr275Cys; residue numbers start with the first methionine of GenBank AAI03764; also called p.Tyr275Cys; source: HEK293, transfected (calcium phosphate), in lysate
T2 sequence: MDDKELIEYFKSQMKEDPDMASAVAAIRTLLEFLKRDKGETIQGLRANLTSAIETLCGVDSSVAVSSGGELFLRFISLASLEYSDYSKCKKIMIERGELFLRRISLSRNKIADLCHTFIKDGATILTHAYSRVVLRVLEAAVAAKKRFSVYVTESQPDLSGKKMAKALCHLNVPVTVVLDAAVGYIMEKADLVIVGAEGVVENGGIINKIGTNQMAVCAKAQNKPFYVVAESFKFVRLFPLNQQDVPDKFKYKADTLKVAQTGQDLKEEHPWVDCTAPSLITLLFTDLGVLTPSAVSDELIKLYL


Columns and labels:
[1] = biological target: T1, His6-myc-tagged Val183Phe eIF2Bα; assay: pull-down; His6-myc-eIF2Bα (WT or mutant) co-expressed with myc-tagged eIF2B subunits in HEK293; ~200 μg lysate on Ni2+-NTA agarose, 1 h at 4 °C, lysis buffer (20 mM Hepes-KOH pH 7.6, 50 mM KCl, 0.5 % Triton X-100) with 20 mM imidazole; bound material blotted for myc tag, total and phospho-eIF2α; conditions: partners not purified
[2] = biological target: T2, His6-myc-tagged Tyr275Cys eIF2Bα; assay: as above; conditions: partners not purified
[3] = biological target: T1, His6-myc-tagged Val183Phe eIF2Bα; assay: cell-based or functional assay

Binder | reduction in binding relative to WT [1] [%] | reduction in binding relative to WT [2] [%] | decrease in eIF2B GEF activity of complexes containing Val183Phe eIF2Bα, relative to WT (100 %) [3] [%]
myc-tagged eIF2Bγ (natural protein, UniProt Q9NR50 1-452, looked up, eIF2Bγ, gamma subunit of eukaryotic initiation factor 2B; one of 'the other subunits of the eIF2B complex'; source: HEK293, transfected (calcium phosphate), in lysate) MEFQAVVMAVGGGSRMTDLTSSIPKPLLPVGNKPLIWYPLNLLERVGFEEVIVVTTRDVQKALCAEFKMKMKPDIVCIPDDADMGTADSLRYIYPKLKTDVLVLSCDLITDVALHEVVDLFRAYDASLAMLMRKGQDSIEPVPGQKGKKKAVEQRDFIGVDSTGKRLLFMANEADLDEELVIKGSILQKHPRIRFHTGLVDAHLYCLKKYIVDFLMENGSITSIRSELIPYLVRKQFSSASSQQGQEEKEEDLKKKELKSLDIYSFIKEANTLNLAPYDACWNACRGDRWEDLSRSQVRCYVHIMKEGLCSRVSTLGLYMEANRQVPKLLSALCPEEPPVHSSAQIVSKHLVGVDSLIGPETQIGEKSSIKRSVIGSSCLIKDRVTITNCLLMNSVTVEEGSNIQGSVICNNAVIEKGADIKDCLIGSGQRIEAKAKRVNEVIVGNDQLMEI | ~50 | ~50 | ~30
myc-tagged eIF2Bβ (natural protein, UniProt P49770 1-351, looked up, eIF2Bβ, beta subunit of eukaryotic initiation factor 2B; one of 'the other subunits of the eIF2B complex'; source: HEK293, transfected (calcium phosphate), in lysate) MPGSAAKGSELSERIESFVETLKRGGGPRSSEEMARETLGLLRQIITDHRWSNAGELMELIRREGRRMTAAQPSETTVGNMVRRVLKIIREEYGRLHGRSDESDQQESLHKLLTSGGLNEDFSFHYAQLQSNIIEAINELLVELEGTMENIAAQALEHIHSNEVIMTIGFSRTVEAFLKEAARKRKFHVIVAECAPFCQGHEMAVNLSKAGIETTVMTDAAIFAVMSRVNKVIIGTKTILANGALRAVTGTHTLALAAKHHSTPLIVCAPMFKLSPQFPNEEDSFHKFVAPEEVLPFTEGDILEKVSVHCPVFDYVPPELITLFISNIGGNAPSYIYRLMSELYHPDDHVL | ~50 | ~50 | ~30
